Data: paper PMC3657558

Biological target: CblC, full-length, His-tagged (UniProt Q9Y4U1)
Assay: native gel or EMSA

Chain of UniProt Q9Y4U1 (Q9Y4U1 whole entry): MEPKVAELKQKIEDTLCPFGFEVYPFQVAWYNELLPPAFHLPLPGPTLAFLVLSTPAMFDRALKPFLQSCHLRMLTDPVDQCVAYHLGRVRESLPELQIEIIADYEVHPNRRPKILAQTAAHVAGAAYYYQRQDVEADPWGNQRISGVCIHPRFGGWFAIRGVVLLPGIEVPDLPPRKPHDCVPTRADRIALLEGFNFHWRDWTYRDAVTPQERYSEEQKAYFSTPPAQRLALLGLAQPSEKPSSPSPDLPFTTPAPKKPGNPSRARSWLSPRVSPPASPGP

stoichiometry N: 1 CblC:CblD
Substance: full-length CblD, N-terminal 6xHis-tagged (from UniProt Q9H3L0 39-296) (natural protein)
